assay: soluble on expression in E. coli; label from the status in PepcDB or PDB records

Sequence	soluble on expression in E. coli
DTEGKAHNEQAESIELEGDRIYKITLKDGLKFSDGTPIKAENFVKTWNYAVANDQLNASFFEGIKGFKEGVKELEGLKVVDDKTFTVELDQPESDFPSRLGYSAFFALPDIAFDDMAAFGENPVSSGPYKLAEWNHNESLTIVPNEEYQGDRKAKNDGVKFVFYASQDAAYSDLLAGNLDVLDQVPDSAFATYKDELGDRAVNQPAAVFQSFTIPEKLEHFSGEEGALRRAAISHAINREEITKTIFQDTRTPAKDFSSPVVDGYKEGLKGSEVVKFDSAKAKELWAQADKISKFTGEFTIAYNSDGGHQSWVDAVANQLKNNLGIAASGKPYPDFKSLRDEVTNHTITGAFRTGWQGDYPLLGNFLQPLYATNASSNDGQYSNPAFDAKLEEAAGAKSVEEGLKLYQEAEEILFKDLPAIPLWYANVNGGSSDKVSNVTFNWKSVAAYEQITKG	not soluble
MGSDKIHHHHHHKRQVSGDEAYLQASPLSELHAPAGMILPIQVGDYNIPVANSTGAVGKALDIRPPAQPLALVSGARTQFNGDTATLMVENGRSGSLWAQVTSILQAKNYVIAKRDDASQTLNTDWVEWNRLDEDQQYRGRYQISVKPQGYQQAVVVKLVNLEQAGKPVADPASLQRYSTAMLNVISEGLDMNATSAQNAAQRSAGATFDVQSAADDTGLPMLVVRAPFNLVWQRLPGALEKVGMKVTDSTRSQGSMALTYKPLSDSSWQELGARDPQLVSGDYKLQVGDLDNRSSLQFIDPKGHTLTQSQNDALVAVFQAAFNK	not soluble
MNRHSTTSGNLNTVFGYVDEETVSQGISASYVGSGKLVGNRLVRHTQTSLFSSANTW	not soluble
MAGGDDLKLLGAWPSPFVTRVKLALALKGLSYEDVEEDLYKKSELLLKSNPVHKKIPVLIHNGAPVCESMIILQYIDEVFASTGPSLLPADPYERAIARFWVAYVDDKLVAPWRQWLRGKTEEEKSEGKKQAFAAVGVLEGALRECSKGGGFFGGDGVGLVDVALGGVLSWMKVTEALSGDKIFDAAKTPLLAAWVERFIELDAAKAALPDVGRLLEFAKAREAAAAASK	soluble
MGTHMYSEQGINNTINISTTSLTNATQLTVIGNNNSVYIGNNCKIVSSNIRLKGNNITLFIADDVEIMGLVCSLHSDCSLQIQAKTTMGNGEITIAEKGKISIGKDCMLAHGYEIRNTDMHPIYSLENGERINHGKDVIIGNHVWLGRNVTILKGVCIPNNVVVGSHTVLYKSFKEPNCVIAGSPAKIVKENIVWGRKMYHSTMYDDPTLNEFYK	soluble
MGHHHHHHSHGFYTIKEAERGVVTRFGKFSHLVEPGLNWKPTFIDEVKPVNVEAVRELAASGVMLTSDENVVRVEMNVQYRVTNPEKYLYSVTSPDDSLRQATDSALRGVIGKYTMDRILTEGRTVIRSDTQRELEETIRPYDMGITLLDVNFQAARPPEEVKAAFDDAIAARENEQQYIREAEA	soluble
MRLFIAEKPSLARAIADVLPKPHRKGDGFIECGNGQVVTWCIGHLLEQAQPDAYDSRYARWNLADLPIVPEKWQLQPRPSVTKQLNVIKRFLHEASEIVHAGDPDREGQLLVDEVLDYLQLAPEKRQQVQRCLINDLNPQAVERAIDRLRSNSEFVPLCVSALARARADWLYGINMTRAYTILGRNAGYQGVLSVGRVQTPVLGLVVRRDEEIENFVAKDFFEVKAHIVTPADERFTAIWQPSEACEPYQDEEGRLLHRPLAEHVVNRISGQPAIVTSYNDKRESESAPLPFSLSALQIEAAKRFGLSAQNVLDICQKLYETHKLITYPRSDCRYLPEEHFAGRHAVMNAISVHAPDLLPQPVVDPDIRNRCWDDKKVDAHHAIIPTARSSAINLTENEAKVYNLIARQYLMQFCPDAVFRKCVIELDIAKGKFVAKARFLAEAGWRTLLGSKERDEENDGTPLPVVAKGDELLCEKGEVVERQTQPPRHFTDATLLSAMTGIARFVQDKDLKKILRATDGLGTEATRAGIIELLFKRGFLTKKGRYIHSTDAGKALFHSLPEMATRPDMTAHWESVLTQISEKQCRYQDFMQPLVGTLYQLIDQAKRTPVRQFRGIVAPGSGGSADKKKAAPRKRSAKKSPPADEVGSGAIAHHHHHH	soluble
MDITKADEPVIDEKDYPKPSDAELKAKLTPLQYSVTQNKHTERSFSNEYWDNFQPGIYVDITTGEPVFSSNDKFESGCGWPSFTKPIIKDVVHYETDNSFNMQRTEVLSRAGNAHLGHVFDDGPKDKGGLRYCINSASIKFIPLAEMEKAGYGYLIQSIKK	not soluble
MAIQVKASLRKNPQDKKAAGKYYAQVVLAPEMTQRQIIDQIADRCTVTGSDVKAVLDALMTVIKRNLANGSPIRLGDLGSFRPSVSGIGSENVDKFTASNVKKARVIYVPSAEIKEAVAMYAFSKVGATAEGGNTEKPGGGDIDNPGGGDEEAPDPTVLEHHHHHH	soluble
GAMGMNGIDDLLNINDRIKQVQNERNELASKLQNLKQSLASNDTGGGSGGGSDSSDLLQREAILANELNILDNLKTFLNLIKEVKTNLNILELENCYYSLQSLRKKMRNNAAYLKQSFNFQQSISTYVDTLHLELVSTLYKILTNGFWKITENSIQFTPTVEWGKDKVHIEYDTFMDFVAQQYFPKGSLDNQAWFILDMTSADSQEQVRAKLNTIMKEYMNLSRIVSMIKNSIFISGKEISYENEKNILVFSKSSSHGQHCVSTVLTSFEAVCDFMLDGLAFRDRKTLSYELGPLFNTEFTKFVKNNASIILESLDSPLKNLVSVINNKLTRLVAKSEVTNWTHSGKEIQDLLMN	soluble
MSLDAAAATLPRKSGSVDRLVRLAEADMAGVNRLITDRMQSDVAIIPALAEHLIAAGGKRLRPLMTVAAARLAGADNDHFQKLAAAVEFIHTATLLHDDVVDGSQLRRGKVAAHLIWGGAQSVLVGDFLFARAFELMVETNSMKALEILARASRVIAEGEVLQLMRSHDLNLSQAVYLEIIQAKTAELFAAASEAGAVSAGVDVAESEALRDYGLNLGLAFQLADDALDYGGATETLGKNAGDDFREGKATLPLLLAIARSGPREAEFWERAIGRREQTEADFRRARELIIGSGALDATLDLAADYADKAKAALAMFPANDWREALEELADFAVSRRAEGHHHHHH	soluble
IQEHAIDLSQKSALVIDEELYLPELSLDTLKGLETLAPFGMNNKKPIFLLRDFTVKQVRTMGQNGAHLKLKVAQEQAVFDLLAFNYGSLVTEFQQAQHLELAVTLSVNRWNGNTSLQ	not soluble
MDEQVIKKVVEDVLKKVGIEQKEENKANRGEPVITNPGLTEFVGTALGDTIGLVIANVDASLHEKMGIDPKYRSIGIIGGRTGAGPQIMAADEAVKATNTEVVAIELPRDTKGGAGHGNLIIFGAEEVSDARRAVEVALKELRRTFGDVYVNEAGHLEFQYTARASYALQKAFGAPLGKAFGLIVGAPAAIGVLCCDTAVKAAEVEVIGYASPAKGTSMTNEAILFISGDSGAVRQAIIAAREVGLKLLSTLGEAPKSLSGEPYI	not soluble
MSLKIAEAAARSGLSIDTIRFYERSGLLPPIARGADGMRRFSPETVDWLRLLASLRETGMELRAMRRFAELYRQGDATIPERRRILQDHAASLNGRRAALDRCAALLAHKLQRYCEIEGEGHHHHHH	not soluble
MTNWLIAYQGEPGAYSEIAALRFGEPLPCESFDDVFSAVTEQKADYAVIPIENSLGGSIHQNYDLLLRRPVVILAETFVKVEHCLLGLPGASVETATKAMSHPQALVQCHNFFATHPQIRAEAAYDTAGSAKMVAESRDKSALAIASKRAGELYGLDILKENLADEEWNITRFFCIAHENNPDISHLKVRPDVARQKTSIVFALPNEQGSLFRALATFALRGIDLTKIESRPSRKKAFEYLFYADFIGHREDQNVHNALENLREFATMVKVLGSYGVVNP	soluble
MSLEEFVKTGKTVCILINKQGRIYYSNIGKDVAEKCLEDIHIFDHLPADGTVSYNVGYYTVTADTVDLDEAHYYLILIQPQGNLYKYAYRDSFTGLYNRNYWEQLISGKMHRPIPKRFTLIVIDVDNLKSLNDNRGHLAGDKAIRIVGKSIRESIRKQDIAVRYGGDEFFILLANTKKAIVEKVINRVKENIRKRGKEENIHIEISVGMACSNSINKLEKVITMADYNMYKEKREKKVQVKHIGEGHHHHHH	not soluble
QLPSYRFNPNNHQSEQTLCVVCMCDFESRQLLRVLPCNHEFHAKCVDKWLKANRTCPICRAD	soluble
MTAVKHTTESTFAKLGVRDEIVRALGEEGIKRPFAIQELTLPLALDGEDVIGQARTGMGKTFAFGVPLLQRITSGDGTRPLTGAPRALVVVPTRELCLQVTDDLATAGKYLTAGPDTDDAAAVRRRLSVVSIYGGRPYEPQIEALRAGADVVVGTPGRLLDLCQQGHLQLGGLSVLVLDEADEMLDLGFLPDIERILRQIPADRQSMLFSATMPDPIITLARTFMVRPTHIRAEAPHSSAVHDATEQFVYRAHALDKVELVSRVLQARDRGATMIFTRTKRTAQKVADELTERGFAVGAVHGDLGQLAREKALKAFRTGGIDVLVATDVAARGIDIDDVTHVINYQCPEDEKMYVHRIGRTGRAGRTGVAVTLVDWDELPRWSMIDQALGLGSPDPAETYSNSPHLYAELAIPATAGGTVGPARKSQGRRRDTDCDGQKTAQHARNTPRRRRTRGGKPVTGHPGTNPISSPIVGGDATSEPGSGTASDSGSDVVSGSRSGNGEAARRRRRRRRRPTHAQDGFAARAN	soluble
MGSDKIHHHHHHMAVITISREMGTGAYQIAREVAKRLKHTLVDGNKIAELAPRYGLDKELLKRVDEKPPVYITAEDRMHAAHLNTIEIIILDCVKQGNVILYGRGAQDLLSDVENILRIRFIAPFEHRVENFSEREWIDPDLARELIRKSDHQRGGFIHFYFNRDWNDSLGYDLTFNTERMSQSAIIESIIAAAKDSRLKEGEERLKQVIDETILAKKVETAFLKSGDIEYIHFRISVSGKVVSFSGHVHSEAEKREAIRLATAVEGVERVEGDLQVLNYKSHKG	not soluble
MLTPRFDIQPAVSVILPTFDRAPLLASAIESVVAQNFAEWELIVVDDGSSDETFEIVDGYLNQHANIRYMKHRNRKAALSRNAGIQAAFGRYITFLDSDDLYLPEHLESRLHLLESMPEVRLISGGFVCEGDPWVRDRDDPEKLIHVSECIAGATMFGRRELFLDIGGFRALDYAEDTDLWERAARSHKVLKIDQPVSYIYRRSPGSITRTYKPAKPLEHHHHHH	soluble
MPELPEVETTRRRLRPLVLGQTLRQVVHRDPARYRNTALAEGRRILEVDRRGKFLLFALEGGVELVAHLGMTGGFRLEPTPHTRAALVLEGRTLYFHDPRRFGRLFGVRRGDYREIPLLLRLGPEPLSEAFAFPGFFRGLKESARPLKALLLDQRLAAGVGNIYADEALFRARLSPFRPARSLTEEEARRLYRALREVLAEAVELGGSTLSDQSYRQPDGLPGGFQTRHAVYGREGLPCPACGRPVERRVVAGRGTHFCPTCQGEGP	soluble
MGSDKIHHHHHHMADTFLFRVHRSQILPALNAVFEAVDPRSNIPILQNVLLSPNAERLRLSGTNMTVEVETSCDLLESASGNPLTLSGKALLDIVKSFSEVAEIEFSFDDLRGQVRVKSGRSRFLLATLHADQFPTIASLASGKSVAVDMPSLISAIARVKYALFDHKDRAYLSGIFIHPEEGENKIAVVAADGHNLAVVRFPCEAGTTFPGAIIPIKAIDAIRRLFGETKASAQVKISDEMIQICCHDVRLTSKLIDAVYPDYDVAIPKDNTSRIIVDAKHLINAVHRVCLVKKDDKRDTIKLVGSNGMLQVSMAATDGEEAVEEIAAEYNGPQIRIGFNGDYLKDALSSIKTTDVAINLLTESSPGLLTPTVGTDELYVVYPRVLPHD	not soluble
MGSDKIHHHHHHMVAVPQAHPLSVAEYLQFEAASEIKHEYRAGEVYAMADITDVHNTIVGNWVALIRSHVRGSSDRVYCSAMQVWLQQANCIYYPDLLVTCDPRDQETVNYKRFPKLIVEVLSPSTEAFDRGDKFADYQTLETLEEYVLISTSRQRVDCFRRSLEGVWTLQFYLPNAEVLPLRSIGLEVRLSDLYEDVTLPAPPSIPESLEESR	not soluble
